Assay results reported in publication PMC11229353 (Nucleic Acids Research, 2024).
Positions count from the first letter of the chain named. In names and notes the source's numbering stands. Entries after “also recorded” stand apart in the source; their conditions may differ. The star is where a group is joined. Biotin = O=C1N[C@H]2[C@H](CS[C@H]2CCCCC(=O)*)N1

T1: DMC1 (Homo sapiens, UniProt Q14565)
T1 sequence (Q14565 1-340): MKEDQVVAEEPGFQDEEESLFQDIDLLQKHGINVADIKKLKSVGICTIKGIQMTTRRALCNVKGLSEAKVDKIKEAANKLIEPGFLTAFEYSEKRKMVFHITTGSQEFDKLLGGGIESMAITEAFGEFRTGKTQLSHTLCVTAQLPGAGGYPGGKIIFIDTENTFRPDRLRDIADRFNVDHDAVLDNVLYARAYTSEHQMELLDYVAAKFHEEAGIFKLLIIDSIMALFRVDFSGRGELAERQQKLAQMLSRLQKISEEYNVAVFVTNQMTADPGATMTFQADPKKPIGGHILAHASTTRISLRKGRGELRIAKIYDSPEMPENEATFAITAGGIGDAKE

T2: DMC1;BRCA2 F2s3 (PhePP) (human;human, UniProt Q14565;P51587 1-340;2379-2433, |)
T2 sequence 1: T1 sequence (Q14565 1-340)
T2 sequence 2: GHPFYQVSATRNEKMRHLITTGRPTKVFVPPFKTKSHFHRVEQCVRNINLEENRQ

T3: DMC1 F89A (human, UniProt Q14565 1-340, F89A)
T3 sequence: T1 sequence (Q14565 1-340) with F89A

T4: DMC1 (human, UniProt Q14565 1-340)
T4 sequence: T1 sequence (Q14565 1-340)

B1: AF-647-SK3-90 ssDNA (ssDNA)
DNA: AATTCTCATTTTACTTACCGGACGCTATTAGCAGTGGCAGATTGTACTGAGAGTGCACCATATGCGGTGTGAAATACCGCACAGATGCGT
B2: DMC1 (untagged full-length human DMC1, wild type) (natural protein, UniProt Q14565 1-340, looked up)
chain: T1 sequence (Q14565 1-340)
B3: GST-tagged BRCA2 F2 K2404A (domain or fragment, human, UniProt P51587 2351-2479, looked up)
chain: APGQEFLSKSHLYEHLTLEKSSSNLAVSGHPFYQVSATRNEKMRHLITTGRPTAVFVPPFKTKSHFHRVEQCVRNINLEENRQKQNIDGHGSDDSKNKINDNEIHQFNKNNSNQAVAVTFTKCEEEPLD
B4: GST-tagged BRCA2 F2s3 K2404A (domain or fragment, human, UniProt P51587 2379-2433, looked up)
chain: T2 sequence 2 with K26A
B5: GST-tagged BRCA2 F2 (2351–2479), wild type (domain or fragment, human, UniProt P51587 2351-2479, looked up)
chain: B3 chain with A54K
B6: GST-tagged BRCA2 F2 R2401A (domain or fragment, human, UniProt P51587 2351-2479, looked up)
chain: B3 chain with R51A, A54K
B7: GST-tagged BRCA2 F2s3 R2401A (domain or fragment, human, UniProt P51587 2379-2433, looked up)
chain: T2 sequence 2 with R23A
B8: BRCA2 F2s3 (2379–2433), purified recombinant peptide (domain or fragment, human, UniProt P51587 2379-2433, looked up)
chain: T2 sequence 2

Key:
DMC1 [1] = target: T1, DMC1; test: Biolayer interferometry; assay type: binding; settings: immobilized biotinylated peptide, DMC1 concentration of 5 μM, 25°C
DMC1–ssDNA filaments = test: Electrophoretic mobility shift assay; assay type: binding, human; settings: EMSA, 2 μM DMC1, 2 μM PhePP F2s3, 90 nt ssDNA, Ca-ATP, 30 min 37°C
DMC1;BRCA2 F2s3 (PhePP) = target: T2, DMC1;BRCA2 F2s3 (PhePP); test: EMSA
DMC1 F89A = target: T3, DMC1 F89A; test: EMSA
DMC1 [2] = target: T4, DMC1; test: EMSA
crystal structure = target: the molecule itself; test: crystal structure
[3] = target: B2; test: pull-down
[4] = target: B2; test: BLI
[5] = target: B2; test: ITC
[6] = target: B2; test: BLI; remark: listed apart in the source

Biotin-GSG-TTGRPTKVAVPPFKTKSHFH-NH2 [PhePPmut]
binding to DMC1 detected by BLI (DMC1 [1]): No binding was detected

F2s3: purified bacterially expressed BRCA2 fragment 2379–2433 containing the PhePP motif
effect on electrophoretic mobility of the DMC1–ssDNA complex (DMC1–ssDNA filaments): reduced electrophoretic mobility

Biotin-GSG-SNHSFGGSFRTASNKEIKLSEHNIKKSKMFFKDIEE-NH2 [BRC1, reference compound]
binding to DMC1 detected by BLI (DMC1 [1]): No binding was detected; also recorded: no interaction could be detected

Biotin-GSG-VSPAAQKAFQPPRSSGTKYE-NH2 [TR2]
binding to DMC1 detected by BLI (DMC1 [1]): No binding was detected; also recorded: no interaction could be detected

B1
binding result (DMC1;BRCA2 F2s3 (PhePP)): binds | binding result (DMC1 F89A): binds | binding result (DMC1 [2]): binds

B2
stoichiometry N (crystal structure): 8

B3
binding result [3]: binds

B4
binding result [3]: binds

B5
binding result [3]: binds

Biotin-GSGSAESKKPKWVPPAASGGSRS-NH2 [biotinylated RAD51AP1 P-motif peptide]
Kd [4]: ~1.6 µM

Biotin-GSGRSRGILGKFVPPIPKQDGGE-NH2 [biotinylated FIGNL1 P-motif peptide]
Kd [4]: ~16.2 µM

B6
binding result [3]: binds

B7
binding result [3]: binds

Biotin-GSGTTGRPTKVFVPPFKTKSHFH-NH2 [biotinylated BRCA2 F2s6 peptide (Biotin-GSG-F2s6-NH2)]
Kd [4]: ~0.001 µM

Ac-TTGRPTKVFVPPFKTKSHFH-NH2 [BRCA2 F2s6 (2398–2417) synthetic peptide]
Kd [5]: 3.4 ± 1.3 µM | Kd [6]: 2.1 ± 0.5 µM

B8
Kd [5]: 3 ± 0.5 µM
